Measured values published in the MegaScale stability set (Tsuboyama et al. 2023).

B1: r16_88_TrROS_Hall (parent)
chain: EVIELKIKFKTPEQREKLKEIAKKLNAEVVEEKDGEVIIRFKTPEQAERALKEAEKLGAEVEL

Variants of: B1
Assay: folding stability dG (cDNA display proteolysis); higher = more stable
Settings: PBS, room temperature

In order of rising “folding stability dG” value:
1. EVIELKIKFKTPEQREKLKEIAKKLNAEVVEEKDGEVIIRFKTPEQAERALKEAEKLGAPVEL  3.44 kcal/mol
2. EVIELKIKFKTPEQREKLKEIAKKLNAEVVEEKDGEVIIRFKTPEQAERALKEAEKLGAEREL  3.46 kcal/mol
3. EVIELKIKFKTPEQREKLKEIAKKLNAEVVEEKDGEVIIRFKTPEQAERALKEAEKLGAEYEL  3.79 kcal/mol
4. EVIELKIKFKTPEQREKLKEIAKKLNAEVVEEKDGEVIIRFKTPEQAERALKEAEKLGAGVEL  3.81 kcal/mol
5. EVIELKIKFKTPEQREKLKEIAKKLNAEVVEEKDGEVIIRFKTPEQAERALKEAEKLGAEVPL  3.84 kcal/mol
6. EVIELKIKFKTPEQREKLKEIAKKLNAEVVEEKDGEVIIRFKTPEQAERALKEAEKLGAEKEL  3.84 kcal/mol
7. EVIELKIKFKTPEQREKLKEIAKKLNAEVVEEKDGEVIIRFKTPEQAERALKEAEKLGAEVWL  3.87 kcal/mol
8. EVIELKIKFKTPEQREKLKEIAKKLNAEVVEEKDGEVIIRFKTPEQAERALKEAEKLGAESEL  3.93 kcal/mol
9. EVIELKIKFKTPEQREKLKEIAKKLNAEVVEEKDGEVIIRFKTPEQAERALKEAEKLGAEVRL  3.94 kcal/mol
10. EVIELKIKFKTPEQREKLKEIAKKLNAEVVEEKDGEVIIRFKTPEQAERALKEAEKLGAEWEL  3.96 kcal/mol
11. EVIELKIKFKTPEQREKLKEIAKKLNAEVVEEKDGEVIIRFKTPEQAERALKEAEKLGREVEL  3.99 kcal/mol
12. EVIELKIKFKTPEQREKLKEIAKKLNAEVVEEKDGEVIIRFKTPEQAERALKEAEKLGAEMEL  3.99 kcal/mol
13. EVIELKIKFKTPEQREKLKEIAKKLNAEVVEEKDGEVIIRFKTPEQAERALKEAEKLGIEVEL  4.01 kcal/mol
14. EVIELKIKFKTPEQREKLKEIAKKLNAEVVEEKDGEVIIRFKTPEQAERALKEAEKLGAWVEL  4.01 kcal/mol
15. EVIELKIKFKTPEQREKLKEIAKKLNAEVVEEKDGEVIIRFKTPEQAERALKEAEKLGQEVEL  4.05 kcal/mol
16. EVIELKIKFKTPEQREKLKEIAKKLNAEVVEEKDGEVIIRFKTPEQAERALKEAEKLGAEFEL  4.05 kcal/mol
17. EVIELKIKFKTPEQREKLKEIAKKLNAEVVEEKDGEVIIRFKTPEQAERALKEAEKLGAEVEF  4.07 kcal/mol
18. EVIELKIKFKTPEQREKLKEIAKKLNAEVVEEKDGEVIIRFKTPEQAERALKEAEKLGAFVEL  4.07 kcal/mol
19. EVIELKIKFKTPEQREKLKEIAKKLNAEVVEEKDGEVIIRFKTPEQAERALKEAEKLGAMVEL  4.11 kcal/mol
20. EVIELKIKFKTPEQREKLKEIAKKLNAEVVEEKDGEVIIRFKTPEQAERALKEAEKLGAAVEL  4.12 kcal/mol
21. EVIELKIKFKTPEQREKLKEIAKKLNAEVVEEKDGEVIIRFKTPEQAERALKEAEKLGAIVEL  4.12 kcal/mol
22. EVIELKIKFKTPEQREKLKEIAKKLNAEVVEEKDGEVIIRFKTPEQAERALKEAEKLGAEVYL  4.12 kcal/mol
23. EVIELKIKFKTPEQREKLKEIAKKLNAEVVEEKDGEVIIRFKTPEQAERALKEAEKLGAEPEL  4.14 kcal/mol
24. EVIELKIKFKTPEQREKLKEIAKKLNAEVVEEKDGEVIIRFKTPEQAERALKEAEKLGARVEL  4.15 kcal/mol
25. EVIELKIKFKTPEQREKLKEIAKKLNAEVVEEKDGEVIIRFKTPEQAERALKEAEKLGAECEL  4.16 kcal/mol
26. EVIELKIKFKTPEQREKLKEIAKKLNAEVVEEKDGEVIIRFKTPEQAERALKEAEKLGAEVEA  4.17 kcal/mol
27. EVIELKIKFKTPEQREKLKEIAKKLNAEVVEEKDGEVIIRFKTPEQAERALKEAEKLGAEVKL  4.17 kcal/mol
28. EVIELKIKFKTPEQREKLKEIAKKLNAEVVEEKDGEVIIRFKTPEQAERALKEAEKLGAHVEL  4.19 kcal/mol
29. EVIELKIKFKTPEQREKLKEIAKKLNAEVVEEKDGEVIIRFKTPEQAERALKEAEKLGAQVEL  4.2 kcal/mol
30. EVIELKIKFKTPEQREKLKEIAKKLNAEVVEEKDGEVIIRFKTPEQAERALKEAEKLGAETEL  4.2 kcal/mol
31. EVIELKIKFKTPEQREKLKEIAKKLNAEVVEEKDGEVIIRFKTPEQAERALKEAEKLGWEVEL  4.21 kcal/mol
32. EVIELKIKFKTPEQREKLKEIAKKLNAEVVEEKDGEVIIRFKTPEQAERALKEAEKLGALVEL  4.21 kcal/mol
33. EVIELKIKFKTPEQREKLKEIAKKLNAEVVEEKDGEVIIRFKTPEQAERALKEAEKLGAYVEL  4.21 kcal/mol
34. EVIELKIKFKTPEQREKLKEIAKKLNAEVVEEKDGEVIIRFKTPEQAERALKEAEKLGAEVLL  4.21 kcal/mol
35. EVIELKIKFKTPEQREKLKEIAKKLNAEVVEEKDGEVIIRFKTPEQAERALKEAEKLGAEVEE  4.22 kcal/mol
36. EVIELKIKFKTPEQREKLKEIAKKLNAEVVEEKDGEVIIRFKTPEQAERALKEAEKLGAEVEI  4.22 kcal/mol
37. EVIELKIKFKTPEQREKLKEIAKKLNAEVVEEKDGEVIIRFKTPEQAERALKEAEKLGAEQEL  4.22 kcal/mol
38. EVIELKIKFKTPEQREKLKEIAKKLNAEVVEEKDGEVIIRFKTPEQAERALKEAEKLGAEVEM  4.23 kcal/mol
39. EVIELKIKFKTPEQREKLKEIAKKLNAEVVEEKDGEVIIRFKTPEQAERALKEAEKLGAEVET  4.24 kcal/mol
40. EVIELKIKFKTPEQREKLKEIAKKLNAEVVEEKDGEVIIRFKTPEQAERALKEAEKLGADVEL  4.24 kcal/mol
41. EVIELKIKFKTPEQREKLKEIAKKLNAEVVEEKDGEVIIRFKTPEQAERALKEAEKLGAEVML  4.24 kcal/mol
42. EVIELKIKFKTPEQREKLKEIAKKLNAEVVEEKDGEVIIRFKTPEQAERALKEAEKLGAEVFL  4.25 kcal/mol
43. EVIELKIKFKTPEQREKLKEIAKKLNAEVVEEKDGEVIIRFKTPEQAERALKEAEKLGSEVEL  4.26 kcal/mol
44. EVIELKIKFKTPEQREKLKEIAKKLNAEVVEEKDGEVIIRFKTPEQAERALKEAEKLGTEVEL  4.27 kcal/mol
45. EVIELKIKFKTPEQREKLKEIAKKLNAEVVEEKDGEVIIRFKTPEQAERALKEAEKLGACVEL  4.27 kcal/mol
46. EVIELKIKFKTPEQREKLKEIAKKLNAEVVEEKDGEVIIRFKTPEQAERALKEAEKLGAEVER  4.28 kcal/mol
47. EVIELKIKFKTPEQREKLKEIAKKLNAEVVEEKDGEVIIRFKTPEQAERALKEAEKLGASVEL  4.28 kcal/mol
48. EVIELKIKFKTPEQREKLKEIAKKLNAEVVEEKDGEVIIRFKTPEQAERALKEAEKLGAELEL  4.28 kcal/mol
49. EVIELKIKFKTPEQREKLKEIAKKLNAEVVEEKDGEVIIRFKTPEQAERALKEAEKLGAENEL  4.28 kcal/mol
50. EVIELKIKFKTPEQREKLKEIAKKLNAEVVEEKDGEVIIRFKTPEQAERALKEAEKLGANVEL  4.29 kcal/mol
51. EVIELKIKFKTPEQREKLKEIAKKLNAEVVEEKDGEVIIRFKTPEQAERALKEAEKLGAEIEL  4.29 kcal/mol
52. EVIELKIKFKTPEQREKLKEIAKKLNAEVVEEKDGEVIIRFKTPEQAERALKEAEKLGNEVEL  4.3 kcal/mol
53. EVIELKIKFKTPEQREKLKEIAKKLNAEVVEEKDGEVIIRFKTPEQAERALKEAEKLGAEVEN  4.3 kcal/mol
54. EVIELKIKFKTPEQREKLKEIAKKLNAEVVEEKDGEVIIRFKTPEQAERALKEAEKLGAEVQL  4.3 kcal/mol
55. EVIELKIKFKTPEQREKLKEIAKKLNAEVVEEKDGEVIIRFKTPEQAERALKEAEKLGAEEEL  4.3 kcal/mol
56. EVIELKIKFKTPEQREKLKEIAKKLNAEVVEEKDGEVIIRFKTPEQAERALKEAEKLGKEVEL  4.31 kcal/mol
57. EVIELKIKFKTPEQREKLKEIAKKLNAEVVEEKDGEVIIRFKTPEQAERALKEAEKLGAEVED  4.33 kcal/mol
58. EVIELKIKFKTPEQREKLKEIAKKLNAEVVEEKDGEVIIRFKTPEQAERALKEAEKLGAEVIL  4.35 kcal/mol
59. EVIELKIKFKTPEQREKLKEIAKKLNAEVVEEKDGEVIIRFKTPEQAERALKEAEKLGAEVVL  4.35 kcal/mol
60. EVIELKIKFKTPEQREKLKEIAKKLNAEVVEEKDGEVIIRFKTPEQAERALKEAEKLGAEVHL  4.37 kcal/mol
61. EVIELKIKFKTPEQREKLKEIAKKLNAEVVEEKDGEVIIRFKTPEQAERALKEAEKLGAEVEG  4.38 kcal/mol
62. EVIELKIKFKTPEQREKLKEIAKKLNAEVVEEKDGEVIIRFKTPEQAERALKEAEKLGAKVEL  4.38 kcal/mol
63. EVIELKIKFKTPEQREKLKEIAKKLNAEVVEEKDGEVIIRFKTPEQAERALKEAEKLGMEVEL  4.39 kcal/mol
64. EVIELKIKFKTPEQREKLKEIAKKLNAEVVEEKDGEVIIRFKTPEQAERALKEAEKLGAEVES  4.39 kcal/mol
65. EVIELKIKFKTPEQREKLKEIAKKLNAEVVEEKDGEVIIRFKTPEQAERALKEAEKLGAEHEL  4.39 kcal/mol
66. EVIELKIKFKTPEQREKLKEIAKKLNAEVVEEKDGEVIIRFKTPEQAERALKEAEKLGATVEL  4.4 kcal/mol
67. EVIELKIKFKTPEQREKLKEIAKKLNAEVVEEKDGEVIIRFKTPEQAERALKEAEKLGAEVTL  4.4 kcal/mol
68. EVIELKIKFKTPEQREKLKEIAKKLNAEVVEEKDGEVIIRFKTPEQAERALKEAEKLGAEGEL  4.4 kcal/mol
69. EVIELKIKFKTPEQREKLKEIAKKLNAEVVEEKDGEVIIRFKTPEQAERALKEAEKLGAEVEC  4.44 kcal/mol
70. EVIELKIKFKTPEQREKLKEIAKKLNAEVVEEKDGEVIIRFKTPEQAERALKEAEKLGAEVGL  4.46 kcal/mol
71. EVIELKIKFKTPEQREKLKEIAKKLNAEVVEEKDGEVIIRFKTPEQAERALKEAEKLGYEVEL  4.5 kcal/mol
72. EVIELKIKFKTPEQREKLKEIAKKLNAEVVEEKDGEVIIRFKTPEQAERALKEAEKLGAEVSL  4.5 kcal/mol
73. EVIELKIKFKTPEQREKLKEIAKKLNAEVVEEKDGEVIIRFKTPEQAERALKEAEKLGAEVAL  4.5 kcal/mol
74. EVIELKIKFKTPEQREKLKEIAKKLNAEVVEEKDGEVIIRFKTPEQAERALKEAEKLGAEAEL  4.51 kcal/mol
75. EVIELKIKFKTPEQREKLKEIAKKLNAEVVEEKDGEVIIRFKTPEQAERALKEAEKLGAEVNL  4.53 kcal/mol
76. EVIELKIKFKTPEQREKLKEIAKKLNAEVVEEKDGEVIIRFKTPEQAERALKEAEKLGAVVEL  4.54 kcal/mol
77. EVIELKIKFKTPEQREKLKEIAKKLNAEVVEEKDGEVIIRFKTPEQAERALKEAEKLGPEVEL  4.55 kcal/mol
78. EVIELKIKFKTPEQREKLKEIAKKLNAEVVEEKDGEVIIRFKTPEQAERALKEAEKLGAEVEK  4.56 kcal/mol
79. EVIELKIKFKTPEQREKLKEIAKKLNAEVVEEKDGEVIIRFKTPEQAERALKEAEKLGAEVEH  4.59 kcal/mol
80. EVIELKIKFKTPEQREKLKEIAKKLNAEVVEEKDGEVIIRFKTPEQAERALKEAEKLGAEVCL  4.59 kcal/mol
81. EVIELKIKFKTPEQREKLKEIAKKLNAEVVEEKDGEVIIRFKTPEQAERALKEAEKLGAEVDL  4.59 kcal/mol
82. EVIELKIKFKTPEQREKLKEIAKKLNAEVVEEKDGEVIIRFKTPEQAERALKEAEKLGLEVEL  4.62 kcal/mol
83. EVIELKIKFKTPEQREKLKEIAKKLNAEVVEEKDGEVIIRFKTPEQAERALKEAEKLGVEVEL  4.65 kcal/mol
84. EVIELKIKFKTPEQREKLKEIAKKLNAEVVEEKDGEVIIRFKTPEQAERALKEAEKLGAEVEP  4.69 kcal/mol
85. EVIELKIKFKTPEQREKLKEIAKKLNAEVVEEKDGEVIIRFKTPEQAERALKEAEKLGAEDEL  4.72 kcal/mol
